Data as given in patent publication US20210324063A1 (KODIAK SCIENCES, published 2021).

Key:
[1] = biological target: T1, Histidine-tagged FcγRIIIa (UniProt P08637 17-208, limits assumed); assay: SPR (BIAcore T200), his-tagged receptor captured by anti-his antibody on a CM5 chip, antibody as analyte, single-cycle kinetics, 25 C
T1 construct: also called Fc gamma receptor IIIa; not shown: histidine tag
Description: (§1) Binding kinetics experiments were performed at 25° C. using a BIAcore T200. An anti-his antibody was immobilized on a CM5 chip. Histidine-tagged FcγRI and FcγRIIIa at a concentration of 0.5 μg/mL prepared in HBS-EP buffer (0.01M HEPES pH7.4, 0.15M NaCl, 3 mM EDTA, 0.005% Tween-20) were injected independently for 60-s using a flow rate of 5 μL/min in the active flow cell only. […] Antibody concentrations in the range of 0.48 to 300 nM were used for FcγRI and 7.8 nM to 2000 nM for FcγRIIIa. Following each run, flow cells were regenerated with a 60 s injection of 10 mM glycine pH 1.7 using a flow-rate of […]. Data was double referenced, using subtraction of both reference flow cell and blank cycles. Analysis was performed using BIA evaluation software.

Histidine-tagged FcγRI = biological target: T2, Histidine-tagged FcγRI (UniProt P12314 16-288, limits assumed); assay: as above
T2 construct: also called Fc gamma receptor I; not shown: histidine tag
Description: as §1

Purified human C1q = biological target: T3, Purified human C1q (human, UniProt P02745 23-245; P02746 28-253; P02747 29-245); assay: ELISA: antibody coated on the plate in 1:2 titration, purified human C1q at 5 ug/mL, HRP anti-human C1q detection
T3 construct: also called human complement protein C1q
Description: Complement engagement liabilities were assessed by C1q ELISA binding. The antibody panel was titrated 1:2 from a top concentration of 10 ug/mL in 1×PBS for overnight coating at 4 C. Plates were then blocked After a 2 hour blocking step in 1% BSA. Purified human C1q was then applied at 5 ug/mL in 1% BSA for 2 hours at room temperature followed by detection with HRP-conjugated anti-human C1q antibody and TMB development.

T3 sequence (P02745 23-245 limits assumed, chain 1 of 3): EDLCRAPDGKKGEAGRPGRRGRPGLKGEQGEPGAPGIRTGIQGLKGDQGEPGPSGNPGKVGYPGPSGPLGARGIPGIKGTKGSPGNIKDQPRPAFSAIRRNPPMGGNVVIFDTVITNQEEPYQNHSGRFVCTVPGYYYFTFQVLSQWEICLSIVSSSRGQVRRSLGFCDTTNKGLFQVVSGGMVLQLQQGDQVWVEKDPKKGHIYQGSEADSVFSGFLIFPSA
T3 sequence (P02746 28-253 limits assumed, chain 2 of 3): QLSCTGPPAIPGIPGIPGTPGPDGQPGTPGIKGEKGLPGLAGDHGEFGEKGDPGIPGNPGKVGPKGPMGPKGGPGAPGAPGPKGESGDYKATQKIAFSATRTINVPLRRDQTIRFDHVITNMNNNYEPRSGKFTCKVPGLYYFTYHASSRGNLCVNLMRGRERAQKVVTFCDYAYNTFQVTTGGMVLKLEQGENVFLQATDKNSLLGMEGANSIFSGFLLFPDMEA
T3 sequence (P02747 29-245 limits assumed, chain 3 of 3): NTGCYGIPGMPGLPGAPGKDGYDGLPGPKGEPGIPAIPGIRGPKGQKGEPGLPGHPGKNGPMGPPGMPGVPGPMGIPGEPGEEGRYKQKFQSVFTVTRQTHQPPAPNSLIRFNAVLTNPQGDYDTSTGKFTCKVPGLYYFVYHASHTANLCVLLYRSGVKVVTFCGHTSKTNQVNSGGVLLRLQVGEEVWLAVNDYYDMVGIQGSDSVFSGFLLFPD
T1 sequence (P08637 17-208 limits assumed): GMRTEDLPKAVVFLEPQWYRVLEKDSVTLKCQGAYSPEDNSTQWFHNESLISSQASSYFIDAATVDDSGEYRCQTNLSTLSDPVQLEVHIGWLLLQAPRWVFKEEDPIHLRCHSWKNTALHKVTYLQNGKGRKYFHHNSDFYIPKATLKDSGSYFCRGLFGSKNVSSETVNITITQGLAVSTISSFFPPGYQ
T2 sequence (P12314 16-288 limits assumed): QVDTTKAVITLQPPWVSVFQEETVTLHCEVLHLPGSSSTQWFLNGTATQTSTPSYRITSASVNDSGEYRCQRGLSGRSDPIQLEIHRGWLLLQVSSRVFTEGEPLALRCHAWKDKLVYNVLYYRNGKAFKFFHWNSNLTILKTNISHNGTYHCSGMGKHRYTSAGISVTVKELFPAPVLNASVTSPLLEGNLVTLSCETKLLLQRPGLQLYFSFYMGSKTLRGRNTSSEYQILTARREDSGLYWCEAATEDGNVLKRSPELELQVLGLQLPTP

Row | binding result [1] | binding result (Histidine-tagged FcγRI) | binding result (Purified human C1q) | Binder
1 | no binding (tested: 7.8 nM to 2000 nM) | no binding (tested: 0.48 to 300 nM) | binds | OG1950 (antibody, IgG1, also called anti-VEGF-A antibody with an L443C (EU numbering) mutation; unconjugated antibody) heavy: EVQLVESGGGLVQPGGSLRLSCAASGYDFTHYGMNWVRQAPGKGLEWVGWINTYTGEPTYAADFKRRFTFSLDTSKSTAYLQMNSLRAEDTAVYYCAKYPYYYGTSHWYFDVWGQGTLVTVSSASTKGPSVFPLAPSSKSTSGGTAALGCLVKDYFPEPVTVSWNSGALTSGVHTFPAVLQSSGLYSLSSVVTVPSSSLGTQTYICNVNHKPSNTKVDKKVEPKSCDKTHTCPPCPAPEAAGAPSVFLFPPKPKDTLMISRTPEVTCVVVDVSHEDPEVKFNWYVDGVEVHNAKTKPREEQYNSTYRVVSVLTVLHQDWLNGKEYKCKVSNKALPAPIEKTISKAKGQPREPQVYTLPPSREEMTKNQVSLTCLVKGFYPSDIAVEWESNGQPENNYKTTPPVLDSDGSFFLYSKLTVDKSRWQQGNVFSCSVMHEALHNHYTQKSLSCSPGK light: not shown
2 |  |  | binds | Avastin (bevacizumab) (antibody, human IgG1, kappa, Commercial product) heavy: not shown light: not shown
